Laboratory results from PMC5993831 (2018).

Target: PD-L1 (Mus musculus, UniProt Q9EP73)
Sequence (Q9EP73 19-239): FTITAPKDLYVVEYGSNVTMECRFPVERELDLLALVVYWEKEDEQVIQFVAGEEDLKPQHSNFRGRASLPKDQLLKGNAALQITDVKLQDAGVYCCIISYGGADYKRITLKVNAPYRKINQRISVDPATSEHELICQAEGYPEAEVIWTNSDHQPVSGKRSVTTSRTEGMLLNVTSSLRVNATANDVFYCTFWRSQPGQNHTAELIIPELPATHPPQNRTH

B1: PD-L1 trap (trimeric PD-1 ECD fused to CMP1 trimerization domain) 21-150 (protein)
chain: SGWLLEVPNGPWRSLTFYPAWLTVSEGANATFTCSLSNWSEDLMLNWNRLSPSNQTEKQAAFCNGLSQPVQDARFQIIQLPNRHDFHMNILDTRRNDSGIYLCGAISLHPKAKIEESPGAELVVTERILE
modifications: trimeric fusion with mouse CMP1 residues 458-500 via hinge linker, His6 tag
In the case of B1, the Kd is reported as 0.219 nM.
